# T1: human plasminogen, P00747
# T1 chain: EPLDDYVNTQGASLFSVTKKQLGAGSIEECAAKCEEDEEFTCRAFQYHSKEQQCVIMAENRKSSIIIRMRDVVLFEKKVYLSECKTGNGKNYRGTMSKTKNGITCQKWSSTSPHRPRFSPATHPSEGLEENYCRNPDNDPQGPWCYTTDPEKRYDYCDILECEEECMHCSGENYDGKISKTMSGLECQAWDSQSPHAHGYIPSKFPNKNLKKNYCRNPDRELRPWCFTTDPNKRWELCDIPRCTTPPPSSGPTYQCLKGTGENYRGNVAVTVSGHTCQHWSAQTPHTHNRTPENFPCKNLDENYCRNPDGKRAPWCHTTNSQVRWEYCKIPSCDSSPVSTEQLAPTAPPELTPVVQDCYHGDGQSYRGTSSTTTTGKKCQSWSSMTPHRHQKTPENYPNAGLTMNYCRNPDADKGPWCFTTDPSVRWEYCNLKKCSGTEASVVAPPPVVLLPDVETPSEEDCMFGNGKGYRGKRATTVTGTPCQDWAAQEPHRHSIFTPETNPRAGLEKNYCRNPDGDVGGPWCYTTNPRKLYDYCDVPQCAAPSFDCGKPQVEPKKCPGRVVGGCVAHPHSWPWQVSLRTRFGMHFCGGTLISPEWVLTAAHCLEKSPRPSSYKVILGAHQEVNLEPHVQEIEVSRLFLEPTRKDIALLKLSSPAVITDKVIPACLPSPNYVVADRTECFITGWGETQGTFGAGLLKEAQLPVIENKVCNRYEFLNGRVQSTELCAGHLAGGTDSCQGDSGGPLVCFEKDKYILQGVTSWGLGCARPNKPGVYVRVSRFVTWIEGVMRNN
# Molecular target: T1, human plasminogen, P00747
protein,measurement,value
recombinant staphylokinase (SAK) produced in E. coli from plasmid pOXYSAK-1 (protein) SSSFDKGKYKKGDDASYFEPTGPYLMVNVTGVDGKGNELLSPHYVEFPIKPGTTLTKEKIEYYVEWALDATAYKEFRVVELDPSAKIEVTYYDKNKKKEETKSFPITEKGFVVPDLSEHIKNPGFNLITKVVIEKK,Specific activity of purified SAK protein,1.75 U/µg protein
